T1: human Desmoglein2 (Dsg2) (human, UniProt Q14126 50-1118)
T1 construct: whole, on cells; also called Dsg2-expressing cells
T1 sequence (looked up): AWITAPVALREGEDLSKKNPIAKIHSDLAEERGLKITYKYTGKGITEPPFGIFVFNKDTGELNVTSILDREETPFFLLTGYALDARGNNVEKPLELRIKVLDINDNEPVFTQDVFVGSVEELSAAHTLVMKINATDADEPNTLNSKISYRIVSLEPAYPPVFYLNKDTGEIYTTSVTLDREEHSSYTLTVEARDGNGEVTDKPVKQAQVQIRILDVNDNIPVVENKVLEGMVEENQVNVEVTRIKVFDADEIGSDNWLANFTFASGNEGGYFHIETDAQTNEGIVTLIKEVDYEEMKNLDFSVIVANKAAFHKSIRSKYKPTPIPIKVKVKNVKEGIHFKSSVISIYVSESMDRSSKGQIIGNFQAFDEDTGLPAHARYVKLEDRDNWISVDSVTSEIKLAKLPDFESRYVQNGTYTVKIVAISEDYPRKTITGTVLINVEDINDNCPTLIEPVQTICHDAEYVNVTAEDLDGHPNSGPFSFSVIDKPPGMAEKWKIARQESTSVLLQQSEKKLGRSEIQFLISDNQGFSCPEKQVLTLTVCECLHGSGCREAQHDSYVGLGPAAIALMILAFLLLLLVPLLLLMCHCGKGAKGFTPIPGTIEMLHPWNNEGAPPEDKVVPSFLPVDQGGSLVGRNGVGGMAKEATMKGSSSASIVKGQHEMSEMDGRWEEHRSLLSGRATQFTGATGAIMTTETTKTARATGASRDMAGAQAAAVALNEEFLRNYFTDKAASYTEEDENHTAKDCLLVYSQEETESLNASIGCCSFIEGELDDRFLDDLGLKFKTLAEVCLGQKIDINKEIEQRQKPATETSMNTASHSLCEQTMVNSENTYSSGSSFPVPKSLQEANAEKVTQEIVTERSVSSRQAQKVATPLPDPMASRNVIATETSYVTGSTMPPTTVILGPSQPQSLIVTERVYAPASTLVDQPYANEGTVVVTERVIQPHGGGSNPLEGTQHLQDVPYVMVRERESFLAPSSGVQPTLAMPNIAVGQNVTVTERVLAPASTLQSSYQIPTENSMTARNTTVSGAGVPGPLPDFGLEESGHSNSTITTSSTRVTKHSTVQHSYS


Biological target: T1, human Desmoglein2 (Dsg2)
Experiment: flow cytometry and Western blotting, Dsg2 knockdown and Dsg2 over-expression cells

Row | binding result | Binder
1 | binds | Dsg2 monoclonal antibody 3D4 (antibody, V domains shown, Mouse hybridoma antibody from BALB/c mice, detected with anti-mouse IgG Fc-gamma specific antibody; also called mAb 3D4) VH: QIQLVQSGPELKKPGETVKISCKASGYTFTNYGMNWVRQAPGKALKWMVWMNTNTGESIYAEEFKGRFVFSLDTSASTAYLQINNLNNEDTATYFCARYWDTYWGQGTTLTVSS VL: DIKMTQSPSSMYASLGERVTITCKASQDINSYLSWFQQKPGKSPKTLIYRANRLVDGVPSRFSGSGSGQDFSLTISSLEYEDMGIYYCLQYDEFPYTFGGGTKLEIK
2 | binds | Dsg2 monoclonal antibody 13D3 (antibody, V domains shown, Mouse hybridoma antibody from BALB/c mice, detected with anti-mouse IgG Fc-gamma specific antibody; also called mAb 13D3) VH: QVQLQQPGAELVKPGASVKLSCKASGYTFTSYYMYWVKQRPGQGLEWIGGINPNNGGTNFNEKFKSKATLTVDKSSSTAYMQLRSLTSEDSAVYYCIRGSGYGNWGQGTLVTVSA VL: DIKMTQSPSSMYASLGERVTITCKASQDINGYLSWFQQKPGKSPKTLIYRANRLVDGVPSRFSGSGSGQDYSLTISSLEYEDMGIYYCLQYDEFPYTFGGGTKLEIK
